Source: publication PMC5643311

Assays:
Assay in all cases: co-immunoprecipitation, blot
Settings in all cases: reference: wild type, EGF; sites S303
[1] = molecular target: RelA/p65 (UniProt Q04206)
[2] = molecular target: RelA/p65 (UniProt Q04206); remark: listed apart in the source
[3] = molecular target: RelA/p65 (UniProt Q04206); remark: listed apart in the source

Measured: binding against the reference

MIIP (migration and invasion inhibitory protein) (from UniProt Q5JXC2) S303A, EGF
weaker: all assays above
